Experimental data published in US20230002480A1.

Columns and labels:
Experiment in all cases: cell-based or functional assay
[1] = target: HIV-1 Env of pseudovirus 6240_08_TA5_4622 (clade B (T/F)) (HIV-1)
[2] = target: HIV-1 Env of pseudovirus 1394C9G1(Rev-) (clade C (T/F)) (HIV-1)
[3] = target: HIV-1 Env of pseudovirus SC05_8C11_2344 (clade B (T/F)) (HIV-1)
[4] = target: MuLV envelope (negative control pseudovirus) (MuLV)
[5] = target: HIV-1 Env of pseudovirus 7030102001E5(Rev-) (clade C (T/F)) (HIV-1)
[6] = target: HIV-1 Env of pseudovirus Q461.e2 (clade A) (HIV-1)
[7] = target: HIV-1 Env of pseudovirus ZM233M.PB6 (clade C) (HIV-1)
[8] = target: HIV-1 Env of pseudovirus AC10.0.29 (clade B) (HIV-1)
[9] = target: HIV-1 Env of pseudovirus 1056_10_TA11_1826 (clade B (T/F)) (HIV-1)
[10] = target: HIV-1 Env of pseudovirus ZM109F.PB4 (clade C) (HIV-1)
[11] = target: HIV-1 Env of pseudovirus TRO.11 (clade B) (HIV-1)
[12] = target: HIV-1 Env of pseudovirus Ce704809221_1B3 (clade C (T/F)) (HIV-1)
[13] = target: HIV-1 Env of pseudovirus ZM247v1(Rev-) (clade C (T/F)) (HIV-1)
[14] = target: HIV-1 Env of pseudovirus Ce2060_G9 (clade C (T/F)) (HIV-1)
[15] = target: HIV-1 Env of pseudovirus CNE21 (clade BC) (HIV-1)
[16] = target: HIV-1 Env of pseudovirus Ce2010_F5 (clade C (T/F)) (HIV-1)
[17] = target: HIV-1 Env of pseudovirus ZM197M.PB7 (clade C) (HIV-1)
[18] = target: HIV-1 Env of pseudovirus CNE58 (clade BC) (HIV-1)

N49P18.1 (antibody)
IC50 [1]: 35.2 µg/mL
IC80 [1]: > 50 µg/mL
MPI [1]: 60
IC50 [2]: > 50 µg/mL
IC80 [2]: > 50 µg/mL
MPI [2]: 17
IC50 [3]: 17.3 µg/mL
IC80 [3]: > 50 µg/mL
MPI [3]: 79
IC50 [4]: > 50 µg/mL
IC80 [4]: > 50 µg/mL
MPI [4]: 0
IC50 [5]: 6.35 µg/mL
IC80 [5]: 17.7 µg/mL
MPI [5]: 98
IC50 [6]: 24.7 µg/mL
IC80 [6]: > 50 µg/mL
MPI [6]: 68
IC50 [7]: 38.4 µg/mL
IC80 [7]: > 50 µg/mL
MPI [7]: 57
IC50 [8]: 20 µg/mL
IC80 [8]: > 50 µg/mL
MPI [8]: 71
IC50 [9]: 30.5 µg/mL
IC80 [9]: > 50 µg/mL
MPI [9]: 62
IC50 [10]: 26.6 µg/mL
IC80 [10]: > 50 µg/mL
MPI [10]: 69
IC50 [11]: 4.25 µg/mL
IC80 [11]: 11.7 µg/mL
MPI [11]: 99
IC50 [12]: 41.6 µg/mL
IC80 [12]: > 50 µg/mL
MPI [12]: 59
IC50 [13]: 10.9 µg/mL
IC80 [13]: > 50 µg/mL
MPI [13]: 79
IC50 [14]: > 50 µg/mL
IC80 [14]: > 50 µg/mL
MPI [14]: 37
IC50 [15]: 7.93 µg/mL
IC80 [15]: 29.2 µg/mL
MPI [15]: 95
IC50 [16]: 29 µg/mL
IC80 [16]: > 50 µg/mL
MPI [16]: 68
IC50 [17]: 12.5 µg/mL
IC80 [17]: 49.8 µg/mL
MPI [17]: 84
IC50 [18]: 1.92 µg/mL
IC80 [18]: 5.26 µg/mL
MPI [18]: 100

N49P7.1 (antibody)
IC50, neutralization titer in TZM.bl cells [4]: > 50 µg/mL
IC80, neutralization titer in TZM.bl cells [4]: > 50 µg/mL
MPI, neutralization in TZM.bl cells [4]: 4

N49P11 (antibody)
IC50 [1]: 0.72 µg/mL
IC80 [1]: 3 µg/mL
MPI [1]: 100
IC50 [2]: 6.13 µg/mL
IC80 [2]: 22.3 µg/mL
MPI [2]: 100
IC50 [3]: 5.42 µg/mL
IC80 [3]: 20.5 µg/mL
MPI [3]: 100
IC50 [5]: 0.635 µg/mL
IC80 [5]: 2.29 µg/mL
MPI [5]: 100
IC50 [6]: 0.363 µg/mL
IC80 [6]: 2.15 µg/mL
MPI [6]: 100
IC50 [7]: 5.92 µg/mL
IC80 [7]: 18.5 µg/mL
MPI [7]: 100
IC50 [8]: 5.52 µg/mL
IC80 [8]: 20 µg/mL
MPI [8]: 100
IC50 [9]: 4.77 µg/mL
IC80 [9]: 14.2 µg/mL
MPI [9]: 100
IC50 [10]: 5.2 µg/mL
IC80 [10]: 19.4 µg/mL
MPI [10]: 100
IC50 [11]: 0.179 µg/mL
IC80 [11]: 0.937 µg/mL
MPI [11]: 100
IC50 [12]: 0.644 µg/mL
IC80 [12]: 3.3 µg/mL
MPI [12]: 100
IC50 [13]: 7.48 µg/mL
IC80 [13]: 21.5 µg/mL
MPI [13]: 100
IC50 [14]: 3.33 µg/mL
IC80 [14]: 13.2 µg/mL
MPI [14]: 100
IC50 [15]: 7.4 µg/mL
IC80 [15]: 21.9 µg/mL
MPI [15]: 100
IC50 [16]: 0.38 µg/mL
IC80 [16]: 3.27 µg/mL
MPI [16]: 100
IC50 [17]: 0.303 µg/mL
IC80 [17]: 1.59 µg/mL
MPI [17]: 100
IC50 [18]: 0.038 µg/mL
IC80 [18]: 0.135 µg/mL
MPI [18]: 100

N49P6 (antibody)
IC50 [4]: > 50 µg/mL
IC80 [4]: > 50 µg/mL
MPI [4]: 0

N49P7 (antibody)
IC50, neutralization titer in TZM.bl cells [4]: > 50 µg/mL
IC80, neutralization titer in TZM.bl cells [4]: > 50 µg/mL
MPI, neutralization in TZM.bl cells [4]: 9
